Laboratory results taken from the supplement of paper PMC5998384.

Legend:
HeLa Kyoto [1] = experiment: solubility in G1/S (NP-40 vs SDS abundance) (log2 ratio); higher = more soluble; conditions: cell cycle stage: G1/S
HeLa Kyoto [2] = experiment: melting temperature (median over replicates), in situ; higher = more thermally stable
HeLa Kyoto [3] = experiment: solubility change mitosis vs G1/S (difference of NP-40 vs SDS log2 ratios) (log2 ratio difference); higher = more soluble in mitosis
HeLa Kyoto [4] = experiment: thermal stability score vs G1/S (z-score of summed log2 fold changes over temperatures); higher = more thermally stable than in G1/S
[5] = cell cycle stage: early G1 (4.5 h after nocodazole release)
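Throughout, for melting temperature (median over replicates), in situ: HeLa Kyoto cells synchronized by double thymidine or nocodazole block, proteins quantified by TMT10plex mass spectrometry, three independent biological replicates.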
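Throughout, for solubility change mitosis vs G1/S (difference of NP-40 vs SDS log2 ratios): synchronized HeLa Kyoto cells (double thymidine block for G1/S, nocodazole release for mitosis), protein amounts in NP-40 versus SDS lysates quantified by mass spectrometry, three biological replicates.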
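Throughout, for solubility in G1/S (NP-40 vs SDS abundance): HeLa Kyoto cells arrested at G1/S by double thymidine block, proteins quantified by TMT10plex mass spectrometry in mild NP-40 versus SDS extracts, three biological replicates.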
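Throughout, for thermal stability score vs G1/S (z-score of summed log2 fold changes over temperatures): synchronized HeLa Kyoto cells, proteins quantified by TMT10plex mass spectrometry, three biological replicates, mitosis taken 0.5 h after nocodazole release, G1/S directly after double thymidine block.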

Row | Sequence | solubility in G1/S (log2) (HeLa Kyoto [1]) | melting temperature (HeLa Kyoto [2]; cell cycle stage: G1/S) [°C] | melting temperature (HeLa Kyoto [2]; cell cycle stage: mitosis) [°C] | solubility change mitosis (log2) (HeLa Kyoto [3]) | thermal stability score (HeLa Kyoto [4]; [5]) | thermal stability score (HeLa Kyoto [4]; cell cycle stage: mitosis)
1 | MAGDVGGRSCTDSELLLHPELLSQEFLLLTLEQKNIAVETDVRVNKDSLTDLYVQHAIPLPQRDLPKNRWGKMMEKKREQHEIKNETKRSSTVDGLRKRPLIVFDGSSTSTSIKVKKTENGDNDRLKPPPQASFTSNAFRKLSNSSSSVSPLILSSNLPVNNKTEHNNNDAKQNHDLTHRKSPSGPVKSPPLSPVGTTPVKLKRAAPKEEAEAMNNLKPPQAKRKIQHVTWP [C2ORF49] | 0.348 | 50.3 | 51.3 | 0.015 | -1.3 | -1.02
2 | MAGELADKKDRDASPSKEERKRSRTPDRERDRDRDRKSSPSKDRKRHRSRDRRRGGSRSRSRSRSKSAERERRHKERERDKERDRNKKDRDRDKDGHRRDKDRKRSSLSPGRGKDFKSRKDRDSKKDEEDEHGDKKPKAQPLSLEELLAKKKAEEEAEAKPKFLSKAEREAEALKRRQQEVEERQRMLEEERKKRKQFQDLGRKMLEDPQERERRERRERMERETNGNEDEEGRQKIREEKDKSKELHAIKERYLGGIKKRRRTRHLNDRKFVFEWDASEDTSIDYNPLYKERHQVQLLGRGFIAGIDLKQQKREQSRFYGDLMEKRRTLEEKEQEEARLRKLRKKEAKQRWDDRHWSQKKLDEMTDRDWRIFREDYSITTKGGKIPNPIRSWKDSSLPPHILEVIDKCGYKEPTPIQRQAIPIGLQNRDIIGVAETGSGKTAAFLIPLLVWITTLPKIDRIEESDQGPYAIILAPTRELAQQIEEETIKFGKPLGIRTVAVIGGISREDQGFRLRMGCEIVIATPGRLIDVLENRYLVLSRCTYVVLDEADRMIDMGFEPDVQKILEHMPVSNQKPDTDEAEDPEKMLANFESGKHKYRQTVMFTATMPPAVERLARSYLRRPAVVYIGSAGKPHERVEQKVFLMSESEKRKKLLAILEQGFDPPIIIFVNQKKGCDVLAKSLEKMGYNACTLHGGKGQEQREFALSNLKAGAKDILVATDVAGRGIDIQDVSMVVNYDMAKNIEDYIHRIGRTGRAGKSGVAITFLTKEDSAVFYELKQAILESPVSSCPPELANHPDAQHKPGTILTKKRREETIFA [DDX23] | -1.02 | 48.8 | 50.4 | 0.24 | 1.14 | 3.64
3 | MAGGAREVLTLQLGHFAGFVGAHWWNQQDAALGRATDSKEPPGELCPDVLYRTGRTLHGQETYTPRLILMDLKGSLSSLKEEGGLYRDKQLDAAIAWQGKLTTHKEELYPKNPYLQDFLSAEGVLSSDGVWRVKSIPNGKGSSPLPTATTPKPLIPTEASIRVWSDFLRVHLHPRSICMIQKYNHDGEAGRLEAFGQGESVLKEPKYQEELEDRLHFYVEECDYLQGFQILCDLHDGFSGVGAKAAELLQDEYSGRGIITWGLLPGPYHRGEAQRNIYRLLNTAFGLVHLTAHSSLVCPLSLGGSLGLRPEPPVSFPYLHYDATLPFHCSAILATALDTVTVPYRLCSSPVSMVHLADMLSFCGKKVVTAGAIIPFPLAPGQSLPDSLMQFGGATPWTPLSACGEPSGTRCFAQSVVLRGIDRACHTSQLTPGTPPPSALHACTTGEEILAQYLQQQQPGVMSSSHLLLTPCRVAPPYPHLFSSCSPPGMVLDGSPKGAAVESIPVFGALCSSSSLHQTLEALARDLTKLDLRRWASFMDAGVEHDDVAELLQELQSLAQCYQGGDSLVD [MSTO1] | 0.162 | 51.2 | 51.1 | -0.0764 | 0.792 | 0.318
4 | MAGGMKVAVSPAVGPGPWGSGVGGGGTVRLLLILSGCLVYGTAETDVNVVMLQESQVCEKRASQQFCYTNVLIPKWHDIWTRIQIRVNSSRLVRVTQVENEEKLKELEQFSIWNFFSSFLKEKLNDTYVNVGLYSTKTCLKVEIIEKDTKYSVIVIRRFDPKLFLVFLLGLMLFFCGDLLSRSQIFYYSTGMTVGIVASLLIIIFILSKFMPKKSPIYVILVGGWSFSLYLIQLVFKNLQEIWRCYWQYLLSYVLTVGFMSFAVCYKYGPLENERSINLLTWTLQLMGLCFMYSGIQIPHIALAIIIIALCTKNLEHPIQWLYITCRKVCKGAEKPVPPRLLTEEEYRIQGEVETRKALEELREFCNSPDCSAWKTVSRIQSPKRFADFVEGSSHLTPNEVSVHEQEYGLGSIIAQDEIYEEASSEEEDSYSRCPAITQNNFLT [NEMP1] | 0.0297 | 53.8 | 54.5 | 0.0939 | 1.73 | 6.13
5 | MAGKKVLIVYAHQEPKSFNGSLKNVAVDELSRQGCTVTVSDLYAMNLEPRATDKDITGTLSNPEVFNYGVETHEAYKQRSLASDITDEQKKVREADLVIFQFPLYWFSVPAILKGWMDRVLCQGFAFDIPGFYDSGLLQGKLALLSVTTGGTAEMYTKTGVNGDSRYFLWPLQHGTLHFCGFKVLAPQISFAPEIASEEERKGMVAAWSQRLQTIWKEEPIPCTAHWHFGQ [NQO2] | 0.396 | 59 | 62 | -0.0114 | -1.69 | -2.35
6 | MAGKQAVSASGKWLDGIRKWYYNAAGFNKLGLMRDDTIYEDEDVKEAIRRLPENLYNDRMFRIKRALDLNLKHQILPKEQWTKYEEENFYLEPYLKEVIRERKEREEWAKK [UQCRB] | -0.132 | 53.9 | 52.2 | 0.253 | -3.18 | -2.78
7 | MAGLGHPAAFGRATHAVVRALPESLGQHALRSAKGEEVDVARAERQHQLYVGVLGSKLGLQVVELPADESLPDCVFVEDVAVVCEETALITRPGAPSRRKEVDMMKEALEKLQLNIVEMKDENATLDGGDVLFTGREFFVGLSKRTNQRGAEILADTFKDYAVSTVPVADGLHLKSFCSMAGPNLIAIGSSESAQKALKIMQQMSDHRYDKLTVPDDIAANCIYLNIPNKGHVLLHRTPEEYPESAKVYEKLKDHMLIPVSMSELEKVDGLLTCCSVLINKKVDS [DDAH1] | 0.157 | 55.3 | 56.1 | 0.0143 | 0.276 | -0.764
8 | MAGPAWISKVSRLLGAFHNPKQVTRGFTGGVQTVTLIPGDGIGPEISAAVMKIFDAAKAPIQWEERNVTAIQGPGGKWMIPSEAKESMDKNKMGLKGPLKTPIAAGHPSMNLLLRKTFDLYANVRPCVSIEGYKTPYTDVNIVTIRENTEGEYSGIEHVIVDGVVQSIKLITEGASKRIAEFAFEYARNNHRSNVTAVHKANIMRMSDGLFLQKCREVAESCKDIKFNEMYLDTVCLNMVQDPSQFDVLVMPNLYGDILSDLCAGLIGGLGVTPSGNIGANGVAIFESVHGTAPDIAGKDMANPTALLLSAVMMLRHMGLFDHAARIEAACFATIKDGKSLTKDLGGNAKCSDFTEEICRRVKDLD [IDH3A] | 0.45 | 54.5 | 54.6 | -0.00106 | -0.172 | -1.18
9 | MAGPRGALLAWCRRQCEGYRGVEIRDLSSSFRDGLAFCAILHRHRPDLLDFDSLSKDNVFENNRLAFEVAEKELGIPALLDPNDMVSMSVPDCLSIMTYVSQYYNHFCSPGQAGVSPPRKGLAPCSPPSVAPTPVEPEDVAQGEELSSGSLSEQGTGQTPSSTCAACQQHVHLVQRYLADGRLYHRHCFRCRRCSSTLLPGAYENGPEEGTFVCAEHCARLGPGTRSGTRPGPFSQPKQQHQQQLAEDAKDVPGGGPSSSAPAGAEADGPKASPEARPQIPTKPRVPGKLQELASPPAGRPTPAPRKASESTTPAPPTPRPRSSLQQENLVEQAGSSSLVNGRLHELPVPKPRGTPKPSEGTPAPRKDPPWITLVQAEPKKKPAPLPPSSSPGPPSQDSRQVENGGTEEVAQPSPTASLESKPYNPFEEEEEDKEEEAPAAPSLATSPALGHPESTPKSLHPWYGITPTSSPKTKKRPAPRAPSASPLALHASRLSHSEPPSATPSPALSVESLSSESASQTAGAELLEPPAVPKSSSEPAVHAPGTPGNPVSLSTNSSLASSGELVEPRVEQMPQASPGLAPRTRGSSGPQPAKPCSGATPTPLLLVGDRSPVPSPGSSSPQLQVKSSCKENPFNRKPSPAASPATKKATKGSKPVRPPAPGHGFPLIKRKVQADQYIPEEDIHGEMDTIERRLDALEHRGVLLEEKLRGGLNEGREDDMLVDWFKLIHEKHLLVRRESELIYVFKQQNLEQRQADVEYELRCLLNKPEKDWTEEDRAREKVLMQELVTLIEQRNAIINCLDEDRQREEEEDKMLEAMIKKKEFQREAEPEGKKKGKFKTMKMLKLLGNKRDAKSKSPRDKS [MICALL1] | 0.417 | 49.4 | 50.5 | -0.0692 | -0.815 | 1.14
10 | MAGPVSLRDLLMGASAWMGSESPGGSPTEGGGSAAGGPEPPWREDEICVVGIFGKTALRLNSEKFSLVNTVCDRQVFPLFRHQDPGDPGPGIRTEAGAVGEAGGAEDPGAAAGGSVRGSGAVAEGNRTEAGSQDYSLLQAYYSQESKVLYLLLTSICDNSQLLRACRALQSGEAGGGLSLPHAEAHEFWKHQEKLQCLSLLYLFSVCHILLLVHPTCSFDITYDRVFRALDGLRQKVLPLLKTAIKDCPVGKDWKLNCRPCPPRLLFLFQLNGALKVEPPRNQDPAHPDKPKKHSPKRRLQHALEDQIYRIFRKSRVLTNQSINCLFTVPANQAFVYIVPGSQEEDPVGMLLDQLRSHCTVKDPESLLVPAPLSGPRRYQVMRQHSRQQLSFHIDSSSSSSSGQLVDFTLREFLWQHVELVLSKKGFDDSVGRNPQPSHFELPTYQKWISAASKLYEVAIDGKEEDLGSPTGELTSKILSSIKVLEGFLDIDTKFSENRCQKALPMAHSAYQSNLPHNYTMTVHKNQLAQALRVYSQHARGPAFHKYAMQLHEDCYKFWSNGHQLCEERSLTDQHCVHKFHSLPKSGEKPEADRNPPVLYHNSRARSTGACNCGRKQAPRDDPFDIKAANYDFYQLLEEKCCGKLDHINFPVFEPSTPDPAPAKNESSPAPPDSDADKLKEKEPQTQGESTSLSLALSLGQSTDSLGTYPADPQAGGDNPEVHGQVEVKTEKRPNFVDRQASTVEYLPGMLHSNCPKGLLPKFSSWSLVKLGPAKSYNFHTGLDQQGFIPGTNYLMPWDIVIRTRAEDEGDLDTNSWPAPNKAIPGKRSAVVMGRGRRRDDIARAFVGFEYEDSRGRRFMCSGPDKVMKVMGSGPKESALKALNSDMPLYILSSSQGRGLKPHYAQLMRLFVVVPDAPLQIILMPQVQPGPPPCPVFYPEKQEITLPPDGLWVLRFPYAYVTERGPCFPPKENVQLMSYKVLRGVLKAVTQ [SMG8] | 0.118 | 49.4 | 48.5 | -0.0473 | 0.364 | 0.79
11 | MAGSEQQRPRRRDDGDSDAAAAAAAPLQDAELALAGINMLLNNGFRESDQLFKQYRNHSPLMSFGASFVSFLNAMMTFEEEKMQLACDDLKTTEKLCESEEAGVIETIKNKIKKNVDVRKSAPSMVDRLQRQIIIADCQVYLAVLSFVKQELSAYIKGGWILRKAWKIYNKCYLDINALQELYQKKLTEESLTSDAANDNHIVAEGVSEESLNRLKGAVSFGYGLFHLCISMVPPNLLKIINLLGFPGDRLQGLSSLMYASESKDMKAPLATLALLWYHTVVRPFFALDGSDNKAGLDEAKEILLKKEAAYPNSSLFMFFKGRIQRLECQINSALTSFHTALELAVDQREIQHVCLYEIGWCSMIELNFKDAFDSFERLKNESRWSQCYYAYLTAVCQGATGDVDGAQIVFKEVQKLFKRKNNQIEQFSVKKAERFRKQTPTKALCVLASIEVLYLWKALPNCSFPNLQRMSQACHEVDDSSVVGLKYLLLGAIHKCLGNSEDAVQYFQRAVKDELCRQNNLYVQPYACYELGCLLLDKPETVGRGRALLLQAKEDFSGYDFENRLHVRIHAALASLRELVPQ [TTC39C] | -0.0737 | 53.6 | 52.6 | -0.00412 | -1.01 | -2.55
